{
  "source": "the nanobody polyreactivity screen of Harvey et al. (2022)",
  "data": [
    {"assay": "yeast display, Sf9 membrane polyspecificity reagent, FACS + sequencing; frameworks hold sequencing errors", "procedure,_shortened": "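Galactose induction of a Saccharomyces cerevisiae BJ5465 synthetic nanobody display library ran 36–48 hours. The cells were then stained for 1 hour at 4 °C with 10% biotinylated, detergent-solubilized Sf9 membrane reagent, pulled down on streptavidin microbeads and FACS-sorted into low and high (top ~1%) gates on expression and reagent-binding fluorescence. Labels for polyreactivity follow the gate of origin.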", "values": [
      {"sequence": "QVQLVESGGGLVQAGGSLRLSCAASGITFNPNAMGLYRQAPGKERELVAVITYRGGSTYYADSVKGRFTISRDNAKNTVYLQMNSLKPEDTAVYYCAAQYIGWHLYWYDYWGQGTQVTVSS", "polyreactivity (PSR sort gate)": "low polyreactivity"},
      {"sequence": "QVQLVESGGGLVQAGGSLRLSCAASGITFNRYAMGWYRQAPGKERELVARISLRGGNTYYADSVKGRFTISRDNAKNTVYLQMNSLKPEDTAVYYCAVRGRASLRGTRYGYWGQGTQVTVSS", "polyreactivity (PSR sort gate)": "high polyreactivity"},
      {"sequence": "QVQLVESGGGLVQAGGSLRLSCAASGITFNRYAMGWYRQAPGKERELVARISLRGGNTYYADSVKGRFTISRDNAKNTVYLQMNSLKPEDTAVYYCNAPYYSRRGNSWGQGTQVTVSS", "polyreactivity (PSR sort gate)": "high polyreactivity"},
      {"sequence": "QVQLVESGGGLVQAGGSLRLSCAASGITFNVNAMGWYRQAPGKERELVAAISWRGGSTYYADSVKGRFTISRDNAKNTVYLQMNSLKPEDTAVYYCAAKLDGSSYYYWGQGTQVTVSS", "polyreactivity (PSR sort gate)": "low polyreactivity"},
      {"sequence": "QVQLVESGGGLVQAGGSLRLSCAASGITFNVNAMGWYRQAPGKERELVARITTSGGSTSYADSVKGRFTISRDNAKNTVYLQMNSLKPEYTAVYYCAADRARYYSEYDYWGQGTQVTVSS", "polyreactivity (PSR sort gate)": "low polyreactivity"},
      {"sequence": "QVQLVESGGGLVQAGGSLRLSCAASGITFNVYTMGWYRQAPGKERELVAAITSSGGSTYYADSVKGRFTISRDNAKNTVYLQMNSLKPEDTAVYYCAARGWTRYSPSSRWYDYWGQGTQVTVSS", "polyreactivity (PSR sort gate)": "high polyreactivity"},
      {"sequence": "QVQLVESGGGLVQAGGSLRLSCAASGITFNYYDMGWYRQEPWKARELVATINRSGGTTYYADSVKGRFTISRDTAKNTVYLQMNTMKPEDTAVYYCNALYSSRGRYHSGYDYWGQGTQVTVSS", "polyreactivity (PSR sort gate)": "high polyreactivity"},
      {"sequence": "QVQLVESGGGLVQAGGSLRLSCAASGITFPANAMGWYRQSPGKERELVADISESDGSTYYADSVKGRFTISRDNAKHTVYLQMNRLKPEDTAVYYRAADGTYGTRSDYWGQGTQVTVSS", "polyreactivity (PSR sort gate)": "low polyreactivity"},
      {"sequence": "QVQLVESGGGLVQAGGSLRLSCAASGITFPFNAMGWYRQAPGKERELDAAISSTGSTNYADSVKGRFTISRDNAKNTVYLQMNSLKPEDTAVYYCNKRSNYRRGDGRRHLYWGQGTQVTVSS", "polyreactivity (PSR sort gate)": "low polyreactivity"},
      {"sequence": "QVQLVESGGGLVQAGGSLRLSCAASGITFPGNAMGWYRQAPGTERELVAVIRKSGTSTYYADSVKGRFTISRDNAKNTVYLQMNSLKPEDTAVYYCAAGGPSTLDDYWGQGTQVTVSS", "polyreactivity (PSR sort gate)": "low polyreactivity"},
      {"sequence": "QVQLVESGGGLVQAGGSLRLSCAASGITFPGYAMGWYRQAPGKERELVAAISIGGITYYADSVKGRFTISRDNAKNTVYLQMNSLKPEDTAVYYCAKDVTDPSSRSDPSGDDYWGQGTQVTVSS", "polyreactivity (PSR sort gate)": "low polyreactivity"},
      {"sequence": "QVQLVESGGGLVQAGGSLRLSCAASGITFPKYAMGWYRQAPGKERELVAAITKSGGSTYYADSVKGRFTISRDNAKNTVYLQMNSLKPEDTAVYYCAARPRYGEYDYWGQGTQVTVSS", "polyreactivity (PSR sort gate)": "high polyreactivity"},
      {"sequence": "QVQLVESGGGLVQAGGSLRLSCAASGITFPLYAMGWYRQAPGKERELVAAITSTGGTTYYADSVKGRFTISRDNAKNTVYLQMNSLKPEDTAVYYCAAEWLVYGYQRGYYYWGQGTQVTVSS", "polyreactivity (PSR sort gate)": "high polyreactivity"},
      {"sequence": "QVQLVESGGGLVQAGGSLRLSCAASGITFPPYAMGWYRQAPGKERELVAAISWSGTSTYYADSVKGRFTISRDNAKNPVYLQMNSLKPEDTAVYYCAAVPRHPYHDKYDYWGQGTQVTVSS", "polyreactivity (PSR sort gate)": "high polyreactivity"},
      {"sequence": "QVQLVESGGGLVQAGGSLRLSCAASGITFPVYVMGWYRQAPGKERELVAAISNGGDTYYADSVKGRFTISRDNAKNTVYLQMNSLKPVDTAVYYCAAYYSFPNDYGYEYDYWGQGTQVTVSS", "polyreactivity (PSR sort gate)": "low polyreactivity"},
      {"sequence": "QVQLVESGGGLVQAGGSLRLSCAASGITFPWYAMGWYRQAPGKERELVAAINLAGNTNYADSVKGRFTISRDNAKNNVYLQMNSLKPEDTSVYYCAARWRYKYTLGYWGQGTQVTVSS", "polyreactivity (PSR sort gate)": "high polyreactivity"},
      {"sequence": "QVQLVESGGGLVQAGGSLRLSCAASGITFPWYAMGWYRQAPGKERELVASKTSGASTNYADSVKGRFTISRDNAKNTVYLQMNSLKPEYSAVYYCARDWYSPVYWAAGYDAWGSGYDYWGQGTQVTVSS", "polyreactivity (PSR sort gate)": "high polyreactivity"},
      {"sequence": "QVQLVESGGGLVQAGGSLRLSCAASGITFQDYAMGWYRQAPGKERELVAAISKSGGSTYYADSVKGRFTISRDNAKNTVYLQINSLKPEDTAVYYCATRYLYSNRAYDYWGQGKQVTVSS", "polyreactivity (PSR sort gate)": "high polyreactivity"},
      {"sequence": "QVQLVESGGGLVQAGGSLRLSCAASGITFQRYALGWYRQAPGKERELVAAITRGGSTNYADSVKGRFTISRDNAKNTVYLQMNSLKPEDTAVYYCAAGARYGYGYWGQGTQVTVSS", "polyreactivity (PSR sort gate)": "high polyreactivity"},
      {"sequence": "QVQLVESGGGLVQAGGSLRLSCAASGITFQWYTMGWYRQAPGKERELVATISSGGSTNYADSVKGRFTISRDNAKNTVYLQMNSLKPEDTAVYYCAKQPTVYHHYGLGYWGQGTQVTVSS", "polyreactivity (PSR sort gate)": "low polyreactivity"},
      {"sequence": "QVQLVESGGGLVQAGGSLRLSCAASGITFRFNAMGWYRQAPGKERELVAAITSSGGRTYYADSVKGRFTISRDNAKNTVYLQMNSLKPEDTAVYYCNVRRLASYSFPYGYWGQGTQVTVSS", "polyreactivity (PSR sort gate)": "high polyreactivity"},
      {"sequence": "QVQLVESGGGLVQAGGSLRLSCAASGITFRGNAMGWYRQAPGKERELVATISSGGITNYADSVKGRFTISRDNAKNTVYLQMNSLKPEDTAVYDCNADNAYGFYRVKYEGYYWGQGTQVTVSS", "polyreactivity (PSR sort gate)": "low polyreactivity"},
      {"sequence": "QVQLVESGGGLVQAGGSLRLSCAASGITFRGYAMGWYRQAPGKERELVAAINSGGSTNYADSVKGRFTISRDNAKNTVYLQMNSLKPEDTAVYYCAAGWYYYWGNYLSYAYDYWGQGTQVTVSS", "polyreactivity (PSR sort gate)": "high polyreactivity"},
      {"sequence": "QVQLVESGGGLVQAGGSLRLSCAASGITFRGYAMGWYRQAPGKERELVAAISSGGRTNYADSVKGRFTISRDNAKNTVYLQMNSLKPEDTAVYYCAARYRREKAGYRWDIFYWGQGTQVTVSS", "polyreactivity (PSR sort gate)": "high polyreactivity"},
      {"sequence": "QVQLVESGGGLVQAGGSLRLSCAASGITFRIYAMGWYRQAPGKEREFVAAINQRGGSTYYADSVKGRFTISRDNAKNTVYLQMNSLKPEDTAVYYCNADYSYVGEYDYWGQGTQVTVSS", "polyreactivity (PSR sort gate)": "low polyreactivity"},
      {"sequence": "QVQLVESGGGLVQAGGSLRLSCAASGITFRKYVMGWYRQAPGKERELVATITRNGGTTNYADSVKGRFTISRDNAKNTVYLQMNSLKPEDTAVYYCAAVRRDYDDVYTEYWGQGTQVTVSS", "polyreactivity (PSR sort gate)": "high polyreactivity"},
      {"sequence": "QVQLVESGGGLVQAGGSLRLSCAASGITFRNYAMGWYRQAPGKERELVADITTGGSTYADSVKGRFTISRDNAKNTVYLQMNSLKPEDTAVYDCAADRDFRTPRLYYWGQGTQVTVSS", "polyreactivity (PSR sort gate)": "low polyreactivity"},
      {"sequence": "QVQLVESGGGLVQAGGSLRLSCAASGITFRRNAMGWYRQAPGTERELVAGISGRGGSTYYADSVKGRFTISRDNAKNTVYLQMNSLKPEDTAVYYCAAVRFRTPTLEYWTRYDYWGQGTQVTVSS", "polyreactivity (PSR sort gate)": "high polyreactivity"},
      {"sequence": "QVQLVESGGGLVQAGGSLRLSCAASGITFRRSAMGWYRQAPGKEREVVAAISIRGGRTYYADAVKGRFTISRDNAKNTVYLQMNSLIPEDTAVYYCAADGVYALDVESDYWGLGTQVTVSS", "polyreactivity (PSR sort gate)": "high polyreactivity"},
      {"sequence": "QVQLVESGGGLVQAGGSLRLSCAASGITFRRYAMGWYRQAPGKESELVAAITSSGGSTYYADSVKGRFTISRDNAKNTVYLLMISLKPEDTAVYYCAAAFFSQYYLYEYWGQGTQVTVSS", "polyreactivity (PSR sort gate)": "high polyreactivity"},
      {"sequence": "QVQLVESGGGLVQAGGSLRLSCAASGITFRRYTMGWYIQAPGKERELVATISLSDGNTYYADSVKGRFTISRDNAKNTVYLQMNSLKPEDTAVYYCNARHTWHQTYDYWGQGTQVTVSS", "polyreactivity (PSR sort gate)": "low polyreactivity"},
      {"sequence": "QVQLVESGGGLVQAGGSLRLSCAASGITFRRYTMGWYRQAPGKERELVASISSTGSTNYADSVKGRFTISRDNAKNTVYLQMNSLKPEDTAVYYCAARRPYPYVGYEYWGQGTQVTVSS", "polyreactivity (PSR sort gate)": "high polyreactivity"},
      {"sequence": "QVQLVESGGGLVQAGGSLRLSCAASGITFRRYTMGWYRQPPGKERELVATISLSDGNTYYADSVKGRFTISRDNAKNTVYLQMNSLKPEDTAVYYCNARHTWHQTYDYWGQGTQVTVSS", "polyreactivity (PSR sort gate)": "low polyreactivity"},
      {"sequence": "QVQLVESGGGLVQAGGSLRLSCAASGITFRSNAMGWYRQAPGKERELVATISYRGASTYYADSVKGRFTISRDNAKNTVYLQMNSLKPEYTSVYYCNVRNRYWRSRVDYWGQGTQVTVSS", "polyreactivity (PSR sort gate)": "high polyreactivity"},
      {"sequence": "QVQLVESGGGLVQAGGSLRLSCAASGITFRSYAMGWYRQAPGKERELVATISGRGGRTYYADSVKGRFTISRDNAKNTVYLQMNSLKPEDTAVYYCAARLHSYGVGVDYWGQGTQVSVSS", "polyreactivity (PSR sort gate)": "high polyreactivity"},
      {"sequence": "QVQLVESGGGLVQAGGSLRLSCAASGITFRSYAMGWYRQAPGKERELVATISWSGGITYYADSVKGRFTISRDNAKITVYLQMNSLKPEDTAVYYCAKASQSWGRDDYYYWGQGTQLTVSS", "polyreactivity (PSR sort gate)": "low polyreactivity"},
      {"sequence": "QVQLVESGGGLVQAGGSLRLSCAASGITFRSYEMGWYRAAPAKERELVAAISSGGSRTYYADSVKGRYTISRDNAKKTVYLQMNSLKPEDTAVYYCAATDRSDVYKGAYYYWGQGTQVTVSS", "polyreactivity (PSR sort gate)": "high polyreactivity"},
      {"sequence": "QVQLVESGGGLVQAGGSLRLSCAASGITFRTYAMGWYRQAPGKERELVAAISGSSTSTYYADSVKGRFTISRDNAKNTVYLLMNSLKPEDTAVYYCAAGYRVSVYRYYYWGQGTQVTVSS", "polyreactivity (PSR sort gate)": "high polyreactivity"},
      {"sequence": "QVQLVESGGGLVQAGGSLRLSCAASGITFRTYAMGWYRQAPGKERELVAAISGSSTSTYYADSVKGRFTISRDNAKNTVYLQLNSLKPEDSAVYYCAAGYRVSVYRYYYWGQGTQVTVSS", "polyreactivity (PSR sort gate)": "high polyreactivity"},
      {"sequence": "QVQLVESGGGLVQAGGSLRLSCAASGITFRYYAMGWYRQAPGKERELVAAISYSGGSTYYADSVKGRFTISRDNAKNTVYLQMNRLKPEDTAVYYCNRVWTRLVTYPEYDYWGQGTQVTVSS", "polyreactivity (PSR sort gate)": "high polyreactivity"},
      {"sequence": "QVQLVESGGGLVQAGGSLRLSCAASGITFRYYAMGWYRQAPGKERELVASITSGGVNTYYADSVKGRFTISRDNAKNTVYLQMNSLKPEDTAVYYCATRFSYSALGGYDYWGQGTQVTVSS", "polyreactivity (PSR sort gate)": "low polyreactivity"}
    ]}
  ]
}
